T1: MAGI2_1, Q86UL8
T1 sequence (Q86UL8 12-111, limits assumed, looked up): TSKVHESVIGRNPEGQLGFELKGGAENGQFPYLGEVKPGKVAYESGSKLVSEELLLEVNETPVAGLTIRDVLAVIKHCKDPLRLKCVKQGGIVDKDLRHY

T2: PDZD2_5, O15018
T2 sequence (O15018 2617-2716, limits assumed, looked up): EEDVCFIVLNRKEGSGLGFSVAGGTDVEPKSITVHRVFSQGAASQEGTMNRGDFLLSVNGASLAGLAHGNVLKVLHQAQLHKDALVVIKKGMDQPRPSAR

T3: PDZD2_6, O15018
T3 sequence (O15018 2745-2839, limits assumed, looked up): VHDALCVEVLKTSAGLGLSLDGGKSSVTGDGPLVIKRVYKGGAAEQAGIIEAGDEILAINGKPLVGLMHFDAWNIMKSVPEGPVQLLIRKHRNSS

T4: MPDZ_11, O75970
T4 sequence (O75970 1720-1817, limits assumed, looked up): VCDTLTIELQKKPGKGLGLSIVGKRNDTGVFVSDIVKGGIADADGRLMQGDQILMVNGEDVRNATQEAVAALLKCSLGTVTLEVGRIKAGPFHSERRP

T5: SIPA1L3, O60292
T5 sequence (O60292 961-1052, limits assumed, looked up): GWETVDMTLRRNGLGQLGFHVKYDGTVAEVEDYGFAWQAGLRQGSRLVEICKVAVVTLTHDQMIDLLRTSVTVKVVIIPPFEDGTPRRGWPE

T6: SHROOM2, Q13796
T6 sequence (Q13796 21-118, limits assumed, looked up): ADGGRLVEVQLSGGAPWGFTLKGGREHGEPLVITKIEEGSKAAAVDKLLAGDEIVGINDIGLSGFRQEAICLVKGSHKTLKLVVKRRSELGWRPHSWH

T7: MPDZ_13, O75970
T7 sequence (O75970 1982-2070, limits assumed, looked up): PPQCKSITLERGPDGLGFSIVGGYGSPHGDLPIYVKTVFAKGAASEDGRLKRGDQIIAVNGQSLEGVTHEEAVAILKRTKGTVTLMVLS

T8: SHROOM3, Q8TF72
T8 sequence (Q8TF72 20-120, limits assumed, looked up): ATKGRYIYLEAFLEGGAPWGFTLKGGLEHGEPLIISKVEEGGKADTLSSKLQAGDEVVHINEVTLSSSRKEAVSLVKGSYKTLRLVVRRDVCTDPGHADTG

T9: GIPC1, O14908
T9 sequence (O14908 128-223, limits assumed, looked up): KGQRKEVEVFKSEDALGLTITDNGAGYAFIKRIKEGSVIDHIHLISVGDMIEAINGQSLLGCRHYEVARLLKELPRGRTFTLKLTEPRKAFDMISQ

T10: TJP3_2, O95049
T10 sequence (O95049 190-282, limits assumed, looked up): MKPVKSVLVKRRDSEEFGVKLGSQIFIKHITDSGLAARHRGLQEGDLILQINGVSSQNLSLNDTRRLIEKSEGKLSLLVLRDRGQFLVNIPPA

T11: PDZD7_1, Q9H5P4
T11 sequence (Q9H5P4 81-178, limits assumed, looked up): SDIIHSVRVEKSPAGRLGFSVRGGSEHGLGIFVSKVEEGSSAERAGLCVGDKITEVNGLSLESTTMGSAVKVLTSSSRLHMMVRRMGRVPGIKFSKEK

B1: MAP2K2, P36507 (peptide)
chain: QPGTPTRTAV
B2: RPS6KA1, Q15418 (peptide)
chain: RRVRKLPSTTL
B3: KCNA5, P22460 (peptide)
chain: CLDTSRETDL

The binders below were run against PARD3B_2, Q8TEW8 (assay: holdup assay). Details: plain residues with an end cap or a label only (N-terminal biotin on a linker: ttds).
PARD3B_2, Q8TEW8, sequence (Q8TEW8 376-471): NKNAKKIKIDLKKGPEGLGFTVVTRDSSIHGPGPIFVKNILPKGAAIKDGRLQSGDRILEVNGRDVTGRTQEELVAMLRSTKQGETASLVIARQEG
Parameters: key: below the threshold = too weak to quantify, mostly under pKd 3.1 to 4
B1 was tested, and the pKd was “below the threshold”. For B2, the pKd was “below the threshold”. With B3 the pKd was “below the threshold”.

Each binder was assayed against DLG2_1, Q15700 (assay: holdup assay). Details: plain residues with an end cap or a label only (N-terminal biotin on a linker: ttds).
Parameters: key: below the threshold = too weak to quantify, mostly under pKd 3.1 to 4
With B1 the pKd was “below the threshold”. B2 showed a pKd of 3.83. In the case of B3, the pKd is reported as “below the threshold”.

The binders below were run against T1, MAGI2_1, Q86UL8 (assay: holdup assay). Details: plain residues with an end cap or a label only (N-terminal biotin on a linker: ttds).
Parameters: key: below the threshold = too weak to quantify, mostly under pKd 3.1 to 4
B1 was tested, and the pKd was “below the threshold”. For B2, the pKd was “below the threshold”. With B3 the pKd was “below the threshold”.

Each binder was assayed against T2, PDZD2_5, O15018 (assay: holdup assay). Details: plain residues with an end cap or a label only (N-terminal biotin on a linker: ttds).
Parameters: key: below the threshold = too weak to quantify, mostly under pKd 3.1 to 4
In the case of B1, the pKd is reported as “below the threshold”. For B2, the pKd was “below the threshold”. For B3, the pKd was “below the threshold”.

Each binder was assayed against T3, PDZD2_6, O15018 (assay: holdup assay). Details: plain residues with an end cap or a label only (N-terminal biotin on a linker: ttds).
Parameters: key: below the threshold = too weak to quantify, mostly under pKd 3.1 to 4
With B1 the pKd was “below the threshold”. In the case of B2, the pKd is reported as “below the threshold”. In the case of B3, the pKd is reported as “below the threshold”.

Each binder was assayed against LMO7, Q8WWI1 (assay: holdup assay). Details: plain residues with an end cap or a label only (N-terminal biotin on a linker: ttds).
LMO7, Q8WWI1, sequence (Q8WWI1 1037-1138): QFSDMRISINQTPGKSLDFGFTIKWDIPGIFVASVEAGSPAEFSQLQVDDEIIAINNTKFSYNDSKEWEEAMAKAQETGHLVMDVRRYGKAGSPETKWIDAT
Parameters: key: below the threshold = too weak to quantify, mostly under pKd 3.1 to 4
In the case of B1, the pKd is reported as “below the threshold”. In the case of B2, the pKd is reported as “below the threshold”. For B3, the pKd was “below the threshold”.

The binders below were run against T4, MPDZ_11, O75970 (assay: holdup assay). Details: plain residues with an end cap or a label only (N-terminal biotin on a linker: ttds).
Parameters: key: below the threshold = too weak to quantify, mostly under pKd 3.1 to 4
In the case of B1, the pKd is reported as “below the threshold”. B2 gave a pKd of 3.58. For B3, the pKd was “below the threshold”.

The binders below were run against MAGIX, Q9H6Y5 (assay: holdup assay). Details: plain residues with an end cap or a label only (N-terminal biotin on a linker: ttds).
MAGIX, Q9H6Y5, sequence (Q9H6Y5 118-211): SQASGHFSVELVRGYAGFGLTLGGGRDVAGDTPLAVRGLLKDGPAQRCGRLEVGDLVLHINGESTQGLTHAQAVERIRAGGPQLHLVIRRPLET
Parameters: key: below the threshold = too weak to quantify, mostly under pKd 3.1 to 4
For B1, the pKd was “below the threshold”. With B2 the pKd was “below the threshold”. B3 was tested, and the pKd was “below the threshold”.

The binders below were run against MAGI3_3, Q5TCQ9 (assay: holdup assay). Details: plain residues with an end cap or a label only (N-terminal biotin on a linker: ttds).
MAGI3_3, Q5TCQ9, sequence (Q5TCQ9 572-655): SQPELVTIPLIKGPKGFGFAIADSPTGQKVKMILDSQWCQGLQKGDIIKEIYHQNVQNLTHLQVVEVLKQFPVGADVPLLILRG
Parameters: key: below the threshold = too weak to quantify, mostly under pKd 3.1 to 4
B1 was tested, and the pKd was “below the threshold”. For B2, the pKd was “below the threshold”. In the case of B3, the pKd is reported as “below the threshold”.

The binders below were run against MAGI3_5, Q5TCQ9 (assay: holdup assay). Details: plain residues with an end cap or a label only (N-terminal biotin on a linker: ttds).
MAGI3_5, Q5TCQ9, sequence (Q5TCQ9 847-941): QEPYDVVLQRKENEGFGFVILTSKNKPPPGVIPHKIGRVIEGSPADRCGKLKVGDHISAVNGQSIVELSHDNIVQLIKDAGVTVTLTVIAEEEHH
Parameters: key: below the threshold = too weak to quantify, mostly under pKd 3.1 to 4
B1 was tested, and the pKd was “below the threshold”. With B2 the pKd was “below the threshold”. With B3 the pKd was “below the threshold”.

These binders were tested against T5, SIPA1L3, O60292 (assay: holdup assay). Details: plain residues with an end cap or a label only (N-terminal biotin on a linker: ttds).
Parameters: key: below the threshold = too weak to quantify, mostly under pKd 3.1 to 4
In the case of B1, the pKd is reported as “below the threshold”. For B2, the pKd was “below the threshold”. In the case of B3, the pKd is reported as “below the threshold”.

Each binder was assayed against MAGI1_6, Q96QZ7 (assay: holdup assay). Details: plain residues with an end cap or a label only (N-terminal biotin on a linker: ttds).
MAGI1_6, Q96QZ7, sequence (Q96QZ7 1146-1238): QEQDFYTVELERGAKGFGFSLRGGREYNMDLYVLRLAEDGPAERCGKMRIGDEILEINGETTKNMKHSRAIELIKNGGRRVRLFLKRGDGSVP
Parameters: key: below the threshold = too weak to quantify, mostly under pKd 3.1 to 4
With B1 the pKd was “below the threshold”. In the case of B2, the pKd is reported as “below the threshold”. B3 was tested, and the pKd was 4.55.

Each binder was assayed against MAGI1_5, Q96QZ7 (assay: holdup assay). Details: plain residues with an end cap or a label only (N-terminal biotin on a linker: ttds).
MAGI1_5, Q96QZ7, sequence (Q96QZ7 986-1098): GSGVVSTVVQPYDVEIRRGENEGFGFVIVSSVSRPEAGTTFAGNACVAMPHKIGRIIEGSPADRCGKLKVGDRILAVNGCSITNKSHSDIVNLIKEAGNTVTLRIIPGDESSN
Parameters: key: below the threshold = too weak to quantify, mostly under pKd 3.1 to 4
B1 was tested, and the pKd was “below the threshold”. With B2 the pKd was “below the threshold”. For B3, the pKd was “below the threshold”.

What follows are binders tested against PARD3_1, Q8TEW0 (assay: holdup assay). Details: plain residues with an end cap or a label only (N-terminal biotin on a linker: ttds).
PARD3_1, Q8TEW0, sequence (Q8TEW0 264-372): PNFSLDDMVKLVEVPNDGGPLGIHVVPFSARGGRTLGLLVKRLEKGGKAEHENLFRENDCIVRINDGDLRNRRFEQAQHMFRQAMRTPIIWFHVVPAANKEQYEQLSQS
Parameters: key: below the threshold = too weak to quantify, mostly under pKd 3.1 to 4
In the case of B1, the pKd is reported as “below the threshold”. For B2, the pKd was “below the threshold”. With B3 the pKd was “below the threshold”.

What follows are binders tested against MAST3, O60307 (assay: holdup assay). Details: plain residues with an end cap or a label only (N-terminal biotin on a linker: ttds).
MAST3, O60307, sequence (O60307 945-1048): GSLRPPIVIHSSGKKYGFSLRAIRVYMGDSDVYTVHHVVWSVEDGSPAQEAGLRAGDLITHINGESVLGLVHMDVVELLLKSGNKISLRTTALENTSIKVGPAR
Parameters: key: below the threshold = too weak to quantify, mostly under pKd 3.1 to 4
In the case of B1, the pKd is reported as “below the threshold”. For B2, the pKd was “below the threshold”. For B3, the pKd was “below the threshold”.

The binders below were run against T6, SHROOM2, Q13796 (assay: holdup assay). Details: plain residues with an end cap or a label only (N-terminal biotin on a linker: ttds).
Parameters: key: below the threshold = too weak to quantify, mostly under pKd 3.1 to 4
In the case of B1, the pKd is reported as “below the threshold”. For B2, the pKd was 3.61. For B3, the pKd was 4.22.

What follows are binders tested against T7, MPDZ_13, O75970 (assay: holdup assay). Details: plain residues with an end cap or a label only (N-terminal biotin on a linker: ttds).
Parameters: key: below the threshold = too weak to quantify, mostly under pKd 3.1 to 4
With B1 the pKd was “below the threshold”. For B2, the pKd was “below the threshold”. B3 was tested, and the pKd was “below the threshold”.

What follows are binders tested against T8, SHROOM3, Q8TF72 (assay: holdup assay). Details: plain residues with an end cap or a label only (N-terminal biotin on a linker: ttds).
Parameters: key: below the threshold = too weak to quantify, mostly under pKd 3.1 to 4
For B1, the pKd was “below the threshold”. With B2 the pKd was “below the threshold”. In the case of B3, the pKd is reported as “below the threshold”.

Each binder was assayed against SDCBP_1, O00560 (assay: holdup assay). Details: plain residues with an end cap or a label only (N-terminal biotin on a linker: ttds).
SDCBP_1, O00560, sequence (O00560 111-198): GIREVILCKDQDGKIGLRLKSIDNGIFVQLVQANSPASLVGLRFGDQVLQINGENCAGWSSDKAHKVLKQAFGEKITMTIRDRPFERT
Parameters: key: below the threshold = too weak to quantify, mostly under pKd 3.1 to 4
With B1 the pKd was “below the threshold”. For B2, the pKd was “below the threshold”. For B3, the pKd was “below the threshold”.

These binders were tested against T9, GIPC1, O14908 (assay: holdup assay). Details: plain residues with an end cap or a label only (N-terminal biotin on a linker: ttds).
Parameters: key: below the threshold = too weak to quantify, mostly under pKd 3.1 to 4
For B1, the pKd was “below the threshold”. For B2, the pKd was “below the threshold”. B3 was tested, and the pKd was “below the threshold”.

What follows are binders tested against DLG5_2, Q8TDM6 (assay: holdup assay). Details: plain residues with an end cap or a label only (N-terminal biotin on a linker: ttds).
DLG5_2, Q8TDM6, sequence (Q8TDM6 714-800): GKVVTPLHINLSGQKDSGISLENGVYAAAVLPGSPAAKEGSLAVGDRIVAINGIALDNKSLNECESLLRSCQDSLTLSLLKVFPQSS
Parameters: key: below the threshold = too weak to quantify, mostly under pKd 3.1 to 4
For B1, the pKd was “below the threshold”. B2 was tested, and the pKd was “below the threshold”. B3 was tested, and the pKd was “below the threshold”.

The binders below were run against T10, TJP3_2, O95049 (assay: holdup assay). Details: plain residues with an end cap or a label only (N-terminal biotin on a linker: ttds).
Parameters: key: below the threshold = too weak to quantify, mostly under pKd 3.1 to 4
For B1, the pKd was “below the threshold”. For B2, the pKd was “below the threshold”. For B3, the pKd was “below the threshold”.

What follows are binders tested against CARD14, Q9BXL6 (assay: holdup assay). Details: plain residues with an end cap or a label only (N-terminal biotin on a linker: ttds).
CARD14, Q9BXL6, sequence (Q9BXL6 558-663): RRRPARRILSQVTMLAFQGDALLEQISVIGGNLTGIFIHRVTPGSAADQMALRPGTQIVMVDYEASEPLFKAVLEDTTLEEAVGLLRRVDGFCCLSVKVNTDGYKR
Parameters: key: below the threshold = too weak to quantify, mostly under pKd 3.1 to 4
B1 was tested, and the pKd was “below the threshold”. In the case of B2, the pKd is reported as “below the threshold”. With B3 the pKd was “below the threshold”.

These binders were tested against T11, PDZD7_1, Q9H5P4 (assay: holdup assay). Details: plain residues with an end cap or a label only (N-terminal biotin on a linker: ttds).
Parameters: key: below the threshold = too weak to quantify, mostly under pKd 3.1 to 4
B1 was tested, and the pKd was “below the threshold”. In the case of B2, the pKd is reported as “below the threshold”. For B3, the pKd was “below the threshold”.

Each binder was assayed against AHNAK2, Q8IVF2 (assay: holdup assay). Details: plain residues with an end cap or a label only (N-terminal biotin on a linker: ttds).
AHNAK2, Q8IVF2, sequence (Q8IVF2 108-193): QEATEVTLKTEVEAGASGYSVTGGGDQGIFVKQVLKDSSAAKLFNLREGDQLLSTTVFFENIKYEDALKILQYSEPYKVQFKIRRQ
Parameters: key: below the threshold = too weak to quantify, mostly under pKd 3.1 to 4
B1 was tested, and the pKd was “below the threshold”. In the case of B2, the pKd is reported as “below the threshold”. With B3 the pKd was “below the threshold”.

These binders were tested against GRIP2_2, Q9C0E4 (assay: holdup assay). Details: plain residues with an end cap or a label only (N-terminal biotin on a linker: ttds).
GRIP2_2, Q9C0E4, sequence (Q9C0E4 137-245): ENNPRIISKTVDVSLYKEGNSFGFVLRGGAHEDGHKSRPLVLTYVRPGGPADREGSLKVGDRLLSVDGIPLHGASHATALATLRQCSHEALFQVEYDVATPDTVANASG
Parameters: key: below the threshold = too weak to quantify, mostly under pKd 3.1 to 4
For B1, the pKd was “below the threshold”. For B2, the pKd was “below the threshold”. B3 was tested, and the pKd was “below the threshold”.

Source: PMC9482650, “Quantitative fragmentomics allow affinity mapping of interactomes” (Nature Communications, 2022)
